Data from the Human Domainome abundance scans (Beltran et al. 2025).
± gives the uncertainty stated by the source.

Assay: abundance fitness (aPCA) (normalised: wild type 0, dead -1); higher = more abundant; growth selection in yeast, the domain comes from the species named
Conditions: Homo sapiens

Lipoamide acyltransferase component of branched-chain alpha-keto acid dehydrogenase complex, mitochondrial D197V, P11182
abundance fitness: -0.728 ± 0.061

Lipoamide acyltransferase component of branched-chain alpha-keto acid dehydrogenase complex, mitochondrial D197W, P11182
abundance fitness: -0.387 ± 0.064

Lipoamide acyltransferase component of branched-chain alpha-keto acid dehydrogenase complex, mitochondrial D204A, P11182
abundance fitness: -1.24 ± 0.064

Lipoamide acyltransferase component of branched-chain alpha-keto acid dehydrogenase complex, mitochondrial D204C, P11182
abundance fitness: -1.27 ± 0.098

Lipoamide acyltransferase component of branched-chain alpha-keto acid dehydrogenase complex, mitochondrial D204E, P11182
abundance fitness: -0.771 ± 0.1

Lipoamide acyltransferase component of branched-chain alpha-keto acid dehydrogenase complex, mitochondrial D204G, P11182
abundance fitness: -0.806 ± 0.042

Lipoamide acyltransferase component of branched-chain alpha-keto acid dehydrogenase complex, mitochondrial D204H, P11182
abundance fitness: -0.946 ± 0.16

Lipoamide acyltransferase component of branched-chain alpha-keto acid dehydrogenase complex, mitochondrial D204L, P11182
abundance fitness: -1.26 ± 0.1

Lipoamide acyltransferase component of branched-chain alpha-keto acid dehydrogenase complex, mitochondrial D204M, P11182
abundance fitness: -1.35 ± 0.11

Lipoamide acyltransferase component of branched-chain alpha-keto acid dehydrogenase complex, mitochondrial D204N, P11182
abundance fitness: -0.136 ± 0.4

Lipoamide acyltransferase component of branched-chain alpha-keto acid dehydrogenase complex, mitochondrial D204P, P11182
abundance fitness: -0.455 ± 0.06

Lipoamide acyltransferase component of branched-chain alpha-keto acid dehydrogenase complex, mitochondrial D204Q, P11182
abundance fitness: -0.932 ± 0.062

Lipoamide acyltransferase component of branched-chain alpha-keto acid dehydrogenase complex, mitochondrial D204R, P11182
abundance fitness: -1.07 ± 0.047

Lipoamide acyltransferase component of branched-chain alpha-keto acid dehydrogenase complex, mitochondrial D204S, P11182
abundance fitness: -0.83 ± 0.068

Lipoamide acyltransferase component of branched-chain alpha-keto acid dehydrogenase complex, mitochondrial D204T, P11182
abundance fitness: -0.973 ± 0.064

Lipoamide acyltransferase component of branched-chain alpha-keto acid dehydrogenase complex, mitochondrial D204V, P11182
abundance fitness: -1.1 ± 0.072

Lipoamide acyltransferase component of branched-chain alpha-keto acid dehydrogenase complex, mitochondrial E190A, P11182
abundance fitness: -0.093 ± 0.047

Lipoamide acyltransferase component of branched-chain alpha-keto acid dehydrogenase complex, mitochondrial E190C, P11182
abundance fitness: -0.315 ± 0.12

Lipoamide acyltransferase component of branched-chain alpha-keto acid dehydrogenase complex, mitochondrial E190D, P11182
abundance fitness: 0.039 ± 0.064

Lipoamide acyltransferase component of branched-chain alpha-keto acid dehydrogenase complex, mitochondrial E190F, P11182
abundance fitness: -0.448 ± 0.076

Lipoamide acyltransferase component of branched-chain alpha-keto acid dehydrogenase complex, mitochondrial E190G, P11182
abundance fitness: -0.409 ± 0.038

Lipoamide acyltransferase component of branched-chain alpha-keto acid dehydrogenase complex, mitochondrial E190H, P11182
abundance fitness: -0.086 ± 0.072

Lipoamide acyltransferase component of branched-chain alpha-keto acid dehydrogenase complex, mitochondrial E190I, P11182
abundance fitness: -0.609 ± 0.08

Lipoamide acyltransferase component of branched-chain alpha-keto acid dehydrogenase complex, mitochondrial E190K, P11182
abundance fitness: -0.178 ± 0.056

Lipoamide acyltransferase component of branched-chain alpha-keto acid dehydrogenase complex, mitochondrial E190L, P11182
abundance fitness: -0.186 ± 0.042

Lipoamide acyltransferase component of branched-chain alpha-keto acid dehydrogenase complex, mitochondrial E190M, P11182
abundance fitness: -0.147 ± 0.049

Lipoamide acyltransferase component of branched-chain alpha-keto acid dehydrogenase complex, mitochondrial E190N, P11182
abundance fitness: -0.032 ± 0.047

Lipoamide acyltransferase component of branched-chain alpha-keto acid dehydrogenase complex, mitochondrial E190P, P11182
abundance fitness: -0.963 ± 0.081

Lipoamide acyltransferase component of branched-chain alpha-keto acid dehydrogenase complex, mitochondrial E190Q, P11182
abundance fitness: -0.069 ± 0.059

Lipoamide acyltransferase component of branched-chain alpha-keto acid dehydrogenase complex, mitochondrial E190R, P11182
abundance fitness: -0.199 ± 0.04

Lipoamide acyltransferase component of branched-chain alpha-keto acid dehydrogenase complex, mitochondrial E190S, P11182
abundance fitness: -0.079 ± 0.046

Lipoamide acyltransferase component of branched-chain alpha-keto acid dehydrogenase complex, mitochondrial E190T, P11182
abundance fitness: -0.119 ± 0.047

Lipoamide acyltransferase component of branched-chain alpha-keto acid dehydrogenase complex, mitochondrial E190W, P11182
abundance fitness: -0.192 ± 0.046

Lipoamide acyltransferase component of branched-chain alpha-keto acid dehydrogenase complex, mitochondrial E190Y, P11182
abundance fitness: -0.349 ± 0.05

Lipoamide acyltransferase component of branched-chain alpha-keto acid dehydrogenase complex, mitochondrial E203A, P11182
abundance fitness: -0.041 ± 0.042

Lipoamide acyltransferase component of branched-chain alpha-keto acid dehydrogenase complex, mitochondrial E203C, P11182
abundance fitness: -0.053 ± 0.075

Lipoamide acyltransferase component of branched-chain alpha-keto acid dehydrogenase complex, mitochondrial E203D, P11182
abundance fitness: -0.089 ± 0.059

Lipoamide acyltransferase component of branched-chain alpha-keto acid dehydrogenase complex, mitochondrial E203F, P11182
abundance fitness: -0.409 ± 0.14

Lipoamide acyltransferase component of branched-chain alpha-keto acid dehydrogenase complex, mitochondrial E203G, P11182
abundance fitness: -0.089 ± 0.04

Lipoamide acyltransferase component of branched-chain alpha-keto acid dehydrogenase complex, mitochondrial E203H, P11182
abundance fitness: -0.124 ± 0.059

Lipoamide acyltransferase component of branched-chain alpha-keto acid dehydrogenase complex, mitochondrial E203K, P11182
abundance fitness: -0.027 ± 0.055

Lipoamide acyltransferase component of branched-chain alpha-keto acid dehydrogenase complex, mitochondrial E203L, P11182
abundance fitness: -0.176 ± 0.049

Lipoamide acyltransferase component of branched-chain alpha-keto acid dehydrogenase complex, mitochondrial E203M, P11182
abundance fitness: -0.127 ± 0.06

Lipoamide acyltransferase component of branched-chain alpha-keto acid dehydrogenase complex, mitochondrial E203P, P11182
abundance fitness: -0.173 ± 0.059

Lipoamide acyltransferase component of branched-chain alpha-keto acid dehydrogenase complex, mitochondrial E203Q, P11182
abundance fitness: -0.104 ± 0.058

Lipoamide acyltransferase component of branched-chain alpha-keto acid dehydrogenase complex, mitochondrial E203R, P11182
abundance fitness: 0.024 ± 0.037

Lipoamide acyltransferase component of branched-chain alpha-keto acid dehydrogenase complex, mitochondrial E203S, P11182
abundance fitness: -0.007 ± 0.067

Lipoamide acyltransferase component of branched-chain alpha-keto acid dehydrogenase complex, mitochondrial E203T, P11182
abundance fitness: -0.109 ± 0.087
